The values that follow come from paper PMC8274477 (Frontiers in Cell and Developmental Biology, 2021).

The target of the test is T1, OTULIN (OTU deubiquitinase with linear linkage specificity, FAM105B), His-tagged, biotin-labelled (human, UniProt Q96BN8 1-352, biotin (label; sites not stated)).
T1 construct: OTULIN (FAM105B), cDNA in pET28a; also called HIS-OTULIN; source: E. coli BL21 (DE3), purified (His-tag Purification Resin), labelled with biotin; not shown: His6, N-terminal, kept
The test is described as follows: peptide or protein array; HuProt human proteome microarray; 5 ug/5 ml biotin-labelled LUBAC or OTULIN in solution, 1 h at room temperature; Cy5-streptavidin, scanned at 635 nm; BSA as negative control; hits: Z-score >= 3 and I_(Mean_Ratio) >= 1.4. The following applies: both partners purified.

B1: RAB2B (natural protein, human, UniProt Q8WUD1 1-216, looked up)
chain: MTYAYLFKYIIIGDTGVGKSCLLLQFTDKRFQPVHDLTIGVEFGARMVNIDGKQIKLQIWDTAGQESFRSITRSYYRGAAGALLVYDITRRETFNHLTSWLEDARQHSSSNMVIMLIGNKSDLESRRDVKREEGEAFAREHGLIFMETSAKTACNVEEAFINTAKEIYRKIQQGLFDVHNEANGIKIGPQQSISTSVGPSASQRNSRDIGSNSGCC
notes: RAB2B; protein on the human proteome microarray; source: spotted on the HuProt human proteome microarray
For B1, the binding result is “binds”.

B2: RBM3 (natural protein, human, UniProt P98179 1-157, looked up)
chain: MSSEEGKLFVGGLNFNTDEQALEDHFSSFGPISEVVVVKDRETQRSRGFGFITFTNPEHASVAMRAMNGESLDGRQIRVDHAGKSARGTRGGGFGAHGRGRSYSRGGGDQGYGSGRYYDSRPGGYGYGYGRSRDYNGRNQGGYDRYSGGNYRDNYDN
notes: RBM3; protein on the human proteome microarray; source: spotted on the HuProt human proteome microarray
B2: the binding result is listed as “binds”.

B3: QKI (natural protein, human, UniProt Q96PU8 1-341, looked up)
chain: MVGEMETKEKPKPTPDYLMQLMNDKKLMSSLPNFCGIFNHLERLLDEEISRVRKDMYNDTLNGSTEKRSAELPDAVGPIVQLQEKLYVPVKEYPDFNFVGRILGPRGLTAKQLEAETGCKIMVRGKGSMRDKKKEEQNRGKPNWEHLNEDLHVLITVEDAQNRAEIKLKRAVEEVKKLLVPAAEGEDSLKKMQLMELAILNGTYRDANIKSPALAFSLAATAQAAPRIITGPAPVLPPAALRTPTPAGPTIMPLIRQIQTAVMPNGTPHPTAAIVPPGPEAGLIYTPYEYPYTLAPATSILEYPIEPSGVLGAVATKVRRHDMRVHPYQRIVTADRAATGN
notes: QKI; protein on the human proteome microarray; source: spotted on the HuProt human proteome microarray
Turning to B3, the binding result was “binds”.

B4: RAB5A (natural protein, human, UniProt P20339 1-215, looked up)
chain: MASRGATRPNGPNTGNKICQFKLVLLGESAVGKSSLVLRFVKGQFHEFQESTIGAAFLTQTVCLDDTTVKFEIWDTAGQERYHSLAPMYYRGAQAAIVVYDITNEESFARAKNWVKELQRQASPNIVIALSGNKADLANKRAVDFQEAQSYADDNSLLFMETSAKTSMNVNEIFMAIAKKLPKNEPQNPGANSARGRGVDLTEPTQPTRNQCCSN
notes: RAB5A; protein on the human proteome microarray; source: spotted on the HuProt human proteome microarray
Turning to B4, the binding result is listed as “binds”.

B5: RAB5C (natural protein, human, UniProt P51148 1-216, looked up)
chain: MAGRGGAARPNGPAAGNKICQFKLVLLGESAVGKSSLVLRFVKGQFHEYQESTIGAAFLTQTVCLDDTTVKFEIWDTAGQERYHSLAPMYYRGAQAAIVVYDITNTDTFARAKNWVKELQRQASPNIVIALAGNKADLASKRAVEFQEAQAYADDNSLLFMETSAKTAMNVNEIFMAIAKKLPKNEPQNATGAPGRNRGVDLQENNPASRSQCCSN
notes: RAB5C; protein on the human proteome microarray; source: spotted on the HuProt human proteome microarray
B5: the binding result is listed as “binds”.

B6: PYCRL (natural protein, human, UniProt Q53H96 1-274, looked up)
chain: MAAAEPSPRRVGFVGAGRMAGAIAQGLIRAGKVEAQHILASAPTDRNLCHFQALGCRTTHSNQEVLQSCLLVIFATKPHVLPAVLAEVAPVVTTEHILVSVAAGVSLSTLEELLPPNTRVLRVLPNLPCVVQEGAIVMARGRHVGSSETKLLQHLLEACGRCEEVPEAYVDIHTGLSGSGVAFVCAFSEALAEGAVKMGMPSSLAHRIAAQTLLGTAKMLLHEGQHPAQLRSDVCTPGGTTIYGLHALEQGGLRAATMSAVEAATCRAKELSRK
notes: PYCRL; protein on the human proteome microarray; source: spotted on the HuProt human proteome microarray
Turning to B6, the binding result is “binds”.

B7: RALY (natural protein, human, UniProt Q9UKM9 1-306, looked up)
chain: MSLKLQASNVTNKNDPKSINSRVFIGNLNTALVKKSDVETIFSKYGRVAGCSVHKGYAFVQYSNERHARAAVLGENGRVLAGQTLDINMAGEPKPDRPKGLKRAASAIYSGYIFDYDYYRDDFYDRLFDYRGRLSPVPVPRAVPVKRPRVTVPLVRRVKTNVPVKLFARSTAVTTSSAKIKLKSSELQAIKTELTQIKSNIDALLSRLEQIAAEQKANPDGKKKGDGGGAGGGGGGGGSGGGGSGGGGGGGSSRPPAPQENTTSEAGLPQGEARTRDDGDEEGLLTHSEEELEHSQDTDADDGALQ
notes: RALY; protein on the human proteome microarray; source: spotted on the HuProt human proteome microarray
For the molecule B7, the binding result was “binds”.

B8: NME2 (natural protein, human, UniProt P22392 1-152, looked up)
chain: MANLERTFIAIKPDGVQRGLVGEIIKRFEQKGFRLVAMKFLRASEEHLKQHYIDLKDRPFFPGLVKYMNSGPVVAMVWEGLNVVKTGRVMLGETNPADSKPGTIRGDFCIQVGRNIIHGSDSVKSAEKEISLWFKPEELVDYKSCAHDWVYE
notes: NME2; protein on the human proteome microarray; source: spotted on the HuProt human proteome microarray
Take B8: the binding result is reported as “binds”.

B9: POP7 (natural protein, human, UniProt O75817 1-140, looked up)
chain: MAENREPRGAVEAELDPVEYTLRKRLPSRLPRRPNDIYVNMKTDFKAQLARCQKLLDGGARGQNACSEIYIHGLGLAINRAINIALQLQAGSFGSLQVAANTSTVELVDELEPETDTREPLTRIRNNSAIHIRVFRVTPK
notes: POP7; protein on the human proteome microarray; source: spotted on the HuProt human proteome microarray
As for B9, the binding result was “binds”.

B10: NTPCR (natural protein, human, UniProt Q9BSD7 1-190, looked up)
chain: MARHVFLTGPPGVGKTTLIHKASEVLKSSGVPVDGFYTEEVRQGGRRIGFDVVTLSGTRGPLSRVGLEPPPGKRECRVGQYVVDLTSFEQLALPVLRNADCSSGPGQRVCVIDEIGKMELFSQLFIQAVRQTLSTPGTIILGTIPVPKGKPLALVEEIRNRKDVKVFNVTKENRNHLLPDIVTCVQSSRK
notes: NTPCR; protein on the human proteome microarray; source: spotted on the HuProt human proteome microarray
As to B10, the binding result was “binds”.

B11: PYCR2 (natural protein, human, UniProt Q96C36 1-320, looked up)
chain: MSVGFIGAGQLAYALARGFTAAGILSAHKIIASSPEMNLPTVSALRKMGVNLTRSNKETVKHSDVLFLAVKPHIIPFILDEIGADVQARHIVVSCAAGVTISSVEKKLMAFQPAPKVIRCMTNTPVVVQEGATVYATGTHALVEDGQLLEQLMSSVGFCTEVEEDLIDAVTGLSGSGPAYAFMALDALADGGVKMGLPRRLAIQLGAQALLGAAKMLLDSEQHPCQLKDNVCSPGGATIHALHFLESGGFRSLLINAVEASCIRTRELQSMADQEKISPAALKKTLLDRVKLESPTVSTLTPSSPGKLLTRSLALGGKKD
notes: PYCR2; protein on the human proteome microarray; source: spotted on the HuProt human proteome microarray
As to B11, the binding result is recorded as “binds”.

B12: SDS (natural protein, human, UniProt P20132 1-328, looked up)
chain: MMSGEPLHVKTPIRDSMALSKMAGTSVYLKMDSAQPSGSFKIRGIGHFCKRWAKQGCAHFVCSSAGNAGMAAAYAARQLGVPATIVVPSTTPALTIERLKNEGATVKVVGELLDEAFELAKALAKNNPGWVYIPPFDDPLIWEGHASIVKELKETLWEKPGAIALSVGGGGLLCGVVQGLQEVGWGDVPVIAMETFGAHSFHAATTAGKLVSLPKITSVAKALGVKTVGAQALKLFQEHPIFSEVISDQEAVAAIEKFVDDEKILVEPACGAALAAVYSHVIQKLQLEGNLRTPLPSLVVIVCGGSNISLAQLRALKEQLGMTNRLPK
notes: SDS; protein on the human proteome microarray; source: spotted on the HuProt human proteome microarray
B12: the binding result is “binds”.

B13: RPP25 (natural protein, human, UniProt Q9BUL9 1-199, looked up)
chain: MENFRKVRSEEAPAGCGAEGGGPGSGPFADLAPGAVHMRVKEGSKIRNLMAFATASMAQPATRAIVFSGCGRATTKTVTCAEILKRRLAGLHQVTRLRYRSVREVWQSLPPGPTQGQTPGEPAASLSVLKNVPGLAILLSKDALDPRQPGYQPPNPHPGPSSPPAAPASKRSLGEPAAGEGSAKRSQPEPGVADEDQTA
notes: RPP25; protein on the human proteome microarray; source: spotted on the HuProt human proteome microarray
Turning to B13, the binding result is listed as “binds”.

B14: NUDT16L1 (natural protein, human, UniProt Q9BRJ7 1-211, looked up)
chain: MSTAAVPELKQISRVEAMRLGPGWSHSCHAMLYAANPGQLFGRIPMRFSVLMQMRFDGLLGFPGGFVDRRFWSLEDGLNRVLGLGLGCLRLTEADYLSSHLTEGPHRVVAHLYARQLTLEQLHAVEISAVHSRDHGLEVLGLVRVPLYTQKDRVGGFPNFLSNAFVSTAKCQLLFALKVLNMMPEEKLVEALAAATEKQKKALEKLLPASS
notes: NUDT16L1; protein on the human proteome microarray; source: spotted on the HuProt human proteome microarray
Regarding B14, the binding result is “binds”.

B15: OVOL2 (natural protein, human, UniProt Q9BRP0 1-275, looked up)
chain: MPKVFLVKRRSLGVSVRSWDELPDEKRADTYIPVGLGRLLHDPPEDCRSDGGSSSGSGSSSAGEPGGAESSSSPHAPESETPEPGDAEGPDGHLATKQRPVARSKIKFTTGTCSDSVVHSCDLCGKGFRLQRMLNRHLKCHNQVKRHLCTFCGKGFNDTFDLKRHVRTHTGIRPYKCNVCNKAFTQRCSLESHLKKIHGVQQQYAYKQRRDKLYVCEDCGYTGPTQEDLYLHVNSAHPGSSFLKKTSKKLAALLQGKLTSAHQENTSLSEEEERK
notes: OVOL2; protein on the human proteome microarray; source: spotted on the HuProt human proteome microarray
In the case of B15, the binding result was “binds”.

B16: NECAP2 (natural protein, human, UniProt Q9NVZ3 1-263, looked up)
chain: MEESGYESVLCVKPDVHVYRIPPRATNRGYRAAEWQLDQPSWSGRLRITAKGQMAYIKLEDRTSGELFAQAPVDQFPGTAVESVTDSSRYFVIRIEDGNGRRAFIGIGFGDRGDAFDFNVALQDHFKWVKQQCEFAKQAQNPDQGPKLDLGFKEGQTIKLNIANMKKKEGAAGNPRVRPASTGGLSLLPPPPGGKTSTLIPPPGEQLAVGGSLVQPAVAPSSGGAPVPWPQPNPATADIWGDFTKSTGSTSSQTQPGTGWVQF
notes: NECAP2; protein on the human proteome microarray; source: spotted on the HuProt human proteome microarray
Turning to B16, the binding result is “binds”.

B17: ODAM (natural protein, human, UniProt A1E959 16-279, looked up)
chain: APLIPQRLMSASNSNELLLNLNNGQLLPLQLQGPLNSWIPPFSGILQQQQQAQIPGLSQFSLSALDQFAGLLPNQIPLTGEASFAQGAQAGQVDPLQLQTPPQTQPGPSHVMPYVFSFKMPQEQGQMFQYYPVYMVLPWEQPQQTVPRSPQQTRQQQYEEQIPFYAQFGYIPQLAEPAISGGQQQLAFDPQLGTAPEIAVMSTGEEIPYLQKEAINFRHDSAGVFMPSTSPKPSTTNVFTSAVDQTITPELPEEKDKTDSLREP
notes: ODAM; protein on the human proteome microarray; source: spotted on the HuProt human proteome microarray
In the case of B17, the binding result is given as “binds”.

B18: PDCD6 (natural protein, human, UniProt O75340 1-191, looked up)
chain: MAAYSYRPGPGAGPGPAAGAALPDQSFLWNVFQRVDKDRSGVISDTELQQALSNGTWTPFNPVTVRSIISMFDRENKAGVNFSEFTGVWKYITDWQNVFRTYDRDNSGMIDKNELKQALSGFGYRLSDQFHDILIRKFDRQGRGQIAFDDFIQGCIVLQRLTDIFRRYDTDQDGWIQVSYEQYLSMVFSIV
notes: PDCD6; protein on the human proteome microarray; source: spotted on the HuProt human proteome microarray
With B18, the binding result is recorded as “binds”.

B19: NUDT6 (natural protein, human, UniProt P53370 1-316, looked up)
chain: MRQPLSWGRWRAMLARTYGPGPSAGYRWASGAQGYVRNPPVGACDLQGELDRFGGISVRLARLDALDRLDAAAFQKGLQAAVQQWRSEGRTAVWLHIPILQSRFIAPAASLGFCFHHAESDSSTLTLWLREGPSRLPGYASHQVGVAGAVFDESTRKILVVQDRNKLKNMWKFPGGLSEPEEDIGDTAVREVFEETGIKSEFRSVLSIRQQHTNPGAFGKSDMYIICRLKPYSFTINFCQEECLRCEWMDLNDLAKTENTTPITSRVARLLLYGYREGFDKIDLTVEELPAVYTGLFYKLYHKELPENYKTMKGID
notes: NUDT6; protein on the human proteome microarray; source: spotted on the HuProt human proteome microarray
B19: the binding result is “binds”.
